The source of these data is US20100261182A1.

Series [1] addresses 5-TAMRA-MpTPpYV-NH2 substrate peptide (bis-phosphorylated). The series is described as follows: cell-based or functional assay.
Series [2] deals with T1, 5-TAMRA-MpTPpYV-NH2 substrate peptide (bis-phosphorylated).
T1 chain: MTPYV

In series [3] the target is CaMKII alpha isoform (about 50 kDa), phosphorylated at Thr286.
Series [4] addresses CaMKII beta isoform (about 57 kDa), phosphorylated at Thr286.

B1: His-PPM1E (PPM1E phosphatase with an N-terminal His-tag, expressed in Sf9 cells) (protein)
chain: MAGCIPEEKTYRRFLELFLGEFRGPCGGGEPEPEPEPEPEPEPESEPEPEPELVEAEAAEASVEEPGEEAATVAATEEGDQEQDPEPEEEAAVEGEEEEEGAATAAAAPGHSAVPPPPPQLPPLPPLPRPLSERITREEVEGESLDLCLQQLYKYNCPSFLAAALARATSDEVLQSDLSAHYIPKETDGTEGTVEIETVKLARSVFSKLHEICCSWVKDFPLRRRPQLYYETSIHAIKNMRRKMEDKHVCIPDFNMLFNLEDQEEQAYFAVFDGHGGVDAAIYASIHLHVNLVRQEMFPHDPAEALCRAFRVTDERFVQKAARESLRCGTTGVVTFIRGNMLHVAWVGDSQVMLVRKGQAVELMKPHKPDREDEKQRIEALGGCVVWFGAWRVNGSLSVSRAIGDAEHKPYICGDADSASTVLDGTEDYLILACDGFYDTVNPDEAVKVVSDHLKENNGDSSMVAHKLVASARDAGSSDNITVIVVFLRDMNKAVNVSEESDWTENSFQGGQEDGGDDKENHGECKRPWPQHQCSAPADLGYDGRVDSFTDRTSLSPGSQINVLEDPGYLDLTQIEASKPHSAQFLLPVEMFGPGAPKKANLINELMMEKKSVQSSLPEWSGAGEFPTAFNLGSTGEQIYRMQSLSPVCSGLENEQFKSPGNRVSRLSHLRHHYSKKWHRFRFNPKFYSFLSAQEPSHKIGTSLSSLTGSGKRNRIRSSLPWRQNSWKGYSENMRKLRKTHDIPCPDLPWSYKIE
The molecule B1 displayed an IC50 (EC50) of the PPM1E titration, decrease of polarization in series [1] of 0.16 µM. Moreover, in series [2], the “polarization at a concentration of PPM1E of 33 nM” value is on record as “a polarization of about 147 mP (milli-Polarization) was measured” and the “polarization at a concentration of PPM1E of 0.8 µM” value is reported as “the polarization decreased to about 123 mP”.

B2: Full length PPM1E (SEQ ID NO: 1) overexpressed in H4 neuroglioma cells and rat hippocampal primary neurons (protein)
chain: MAGCIPEEKTYRRFLELFLGEFRGPCGGGEPEPEPEPEPEPEPESEPEPEPELVEAEAAEASVEEPGEEAATVAATEEGDQEQDPEPEEEAAVEGEEEEEGAATAAAAPGHSAVPPPPPQLPPLPPLPRPLSERITREEVEGESLDLCLQQLYKYNCPSFLAAALARATSDEVLQSDLSAHYIPKETDGTEGTVEIETVKLARSVFSKLHEICCSWVKDFPLRRRPQLYYETSIHAIKNMRRKMEDKHVCIPDFNMLFNLEDQEEQAYFAVFDGHGGVDAAIYASIHLHVNLVRQEMFPHDPAEALCRAFRVTDERFVQKAARESLRCGTTGVVTFIRGNMLHVAWVGDSQVMLVRKGQAVELMKPHKPDREDEKQRIEALGGCVVWFGAWRVNGSLSVSRAIGDAEHKPYICGDADSASTVLDGTEDYLILACDGFYDTVNPDEAVKVVSDHLKENNGDSSMVAHKLVASARDAGSSDNITVIVVFLRDMNKAVNVSEESDWTENSFQGGQEDGGDDKENHGECKRPWPQHQCSAPADLGYDGRVDSFTDRTSLSPGSQINVLEDPGYLDLTQIEASKPHSAQFLLPVEMFGPGAPKKANLINELMMEKKSVQSSLPEWSGAGEFPTAFNLGSTGEQIYRMQSLSPVCSGLENEQFKSPGNRVSRLSHLRHHYSKKWHRFRFNPKFYSFLSAQEPSHKIGTSLSSLTGSGKRNRIRSSLPWRQNSWKGYSENMRKLRKTHDIPCPDLPWSYKIE
For B2, in series [3], the “dephosphorylation of pCaMKII alpha band (western blot)” value was “PPM1E phosphatase is dephosphorylating the beta isoform (57 kDa) as well as the alpha isoform (50 kDa) of CaMKII” and the “phosphorylation of CaMKII relative to wildtype HC neurons (western blot)” value was “the phosphorylation of CaMKII is decreasing to 50% of the phosphorylation status of wildtype cells by increasing the level of PPM1E expression 12 times”. For the same molecule, in series [4], the “dephosphorylation of pCaMKII beta band (western blot)” value is “PPM1E phosphatase is dephosphorylating the beta isoform (57 kDa) as well as the alpha isoform (50 kDa) of CaMKII” and the “phosphorylation of CaMKII relative to wildtype HC neurons (western blot)” value was “the phosphorylation of CaMKII is decreasing to 50% of the phosphorylation status of wildtype cells by increasing the level of PPM1E expression 12 times”.
